We go through one molecule from patent publication US7232659.

Test [1] deals with FPR-GFP fusion protein (human; Aequorea victoria), P21462. The experiment in a line: flow cytometry, LRG assembly of 30 nM FPR-GFP on αβγ DCNi beads, ligand varied (FIG. 13B). On the technique in general: A flow cytometer gives signals particle by particle.
Test [2] shares this target. Description: Kd from competition on wild type FPR divided by EC50 of LRG assembly with FPR-GFP.
The target in test [3] is T1, formyl peptide receptor (FPR), wild type, detergent-solubilized (human), P21462.
T1 chain: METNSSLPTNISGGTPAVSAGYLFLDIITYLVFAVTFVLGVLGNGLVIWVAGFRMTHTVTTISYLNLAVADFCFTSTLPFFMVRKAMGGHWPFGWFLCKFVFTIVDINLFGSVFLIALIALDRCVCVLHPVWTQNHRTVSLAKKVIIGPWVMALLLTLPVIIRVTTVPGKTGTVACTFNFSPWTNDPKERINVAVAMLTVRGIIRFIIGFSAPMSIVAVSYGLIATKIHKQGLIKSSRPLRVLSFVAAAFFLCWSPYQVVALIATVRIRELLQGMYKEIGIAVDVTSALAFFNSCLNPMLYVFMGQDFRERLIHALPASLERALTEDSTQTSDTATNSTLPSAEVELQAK
Description: spectrofluorimetric competition with L^F for solubilized FPR, IC50 converted to Kd.

Molecule MLFF (modifications not checked) [fMLFF] registered an EC50 in test [1] of 27 nM. Further, the ratio of Kd (for LR) to EC50 (for LRG formation) in test [2] is 2.8. In test [3], this molecule had a Kd of 75 nM.

A word on the EC50: it is the concentration that produces a half-maximal response. Higher therefore signals a less potent agent. As a reminder, the Kd is the free concentration of one partner at which half of the binding sites on the other are occupied at equilibrium, for simple one-to-one binding. A lower Kd goes with a tighter complex.
